Test results: patent US20220033505A1 (Janssen / Centocor, published 2022)

Key:
[1] = target: T1, CD3 on human T cells (Jurkat cells, primary human T cells) (human, UniProt P07766 23-207); experiment: T cell binding (method not described)
T1 construct: whole, on cells; also called CD3 epsilon; T cell receptor complex

[2] = target: T2, HLA-G1 on K562 cells (K562-HLA-G) (human); experiment: K562-HLA-G cell binding (method not described)
T2 construct: also called cells expressing HLA-G

T1 sequence (P07766 23-207): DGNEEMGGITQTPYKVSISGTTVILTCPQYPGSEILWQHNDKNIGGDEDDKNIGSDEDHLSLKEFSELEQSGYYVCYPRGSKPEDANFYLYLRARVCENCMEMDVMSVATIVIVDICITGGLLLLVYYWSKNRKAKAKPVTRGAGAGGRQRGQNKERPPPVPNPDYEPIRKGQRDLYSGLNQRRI

EC50 [1]: 0.06 µM | EC50 [2]: 0.011 µM
B1: HC3B258 (CD3B376-Fab-Fc x MHGB732-LH-scFv-Fc) (bispecific antibody, human IgG1, lambda, L234A L235A)
heavy: QVQLQQSGPRLVRPSQTLSLTCAISGDSVFNNNAAWSWIRQSPSRGLEWLGRTYYRSKWLYDYAVSVKSRITVNPDTSRNQFTLQLNSVTPEDTALYYCARGYSSSFDYWGQGTLVTVSSASTKGPSVFPLAPSSKSTSGGTAALGCLVKDYFPEPVTVSWNSGALTSGVHTFPAVLQSSGLYSLSSVVTVPSSSLGTQTYICNVNHKPSNTKVDKKVEPKSCDKTHTCPPCPAPEAAGGPSVFLFPPKPKDTLMISRTPEVTCVVVSVSHEDPEVKFNWYVDGVEVHNAKTKPREEQYNSTYRVVSVLTVLHQDWLNGKEYKCKVSNKALPAPIEKTISKAKGQPREPQVYVYPPSREEMTKNQVSLTCLVKGFYPSDIAVEWESNGQPENNYKTTPPVLDSDGSFALVSKLTVDKSRWQQGNVFSCSVMHEALHNHYTQKSLSLSPGK
light: QSALTQPASVSGSPGQSITISCTGTSSNIGTYKFVSWYQQHPDKAPKVLLYEVSKRPSGVSSRFSGSKSGNTASLTISGLQAEDQADYHCVSYAGSGTLLFGGGTKLTVLGQPKAAPSVTLFPPSSEELQANKATLVCLISDFYPGAVTVAWKADSSPVKAGVETTTPSKQSNNKYAASSYLSLTPEQWKSHRSYSCQVTHEGSTVEKTVAPTECS
scFv: DIVMTQSPDSLAVSLGERATINCKSSQSVLHSSNNKNYLTWFQQKPGQPPKLLIYWASTRESGVPDRFSGSGSGTDFTLTISSLQAEDVAVYYCHQYYSTPPTFGQGTKVEIKGGSEGKSSGSGSESKSTGGSQVQLQQSGPGLVKPSQTLSLTCAISGDSVSSNSAAWNWIRQSPSRGLEWLGRTYYRSKWYNDYAVSVKSRITINPDTSKNQISLQLNSVTPEDTAVYYCAGDRRYGIVGLPFAYWGQGTLVTVSSEPKSSDKTHTCPPCPAPEAAGGPSVFLFPPKPKDTLMISRTPEVTCVVVSVSHEDPEVKFNWYVDGVEVHNAKTKPREEQYNSTYRVVSVLTVLHQDWLNGKEYKCKVSNKALPAPIEKTISKAKGQPREPQVYVLPPSREEMTKNQVSLLCLVKGFYPSDIAVEWESNGQPENNYLTWPPVLDSDGSFFLYSKLTVDKSRWQQGNVFSCSVMHEALHNHYTQKSLSLSPGK
